Source: paper PMC7060258, “A new multigene HCIQ subfamily from the sea anemone Heteractis crispa encodes Kunitz-peptides exhibiting neuroprotective activity against 6-hydroxydopamine” (Scientific Reports, 2020)
No end group written: not given here.

T1: human neutrophil elastase (human, UniProt P08246 30-267)
T1 sequence (looked up): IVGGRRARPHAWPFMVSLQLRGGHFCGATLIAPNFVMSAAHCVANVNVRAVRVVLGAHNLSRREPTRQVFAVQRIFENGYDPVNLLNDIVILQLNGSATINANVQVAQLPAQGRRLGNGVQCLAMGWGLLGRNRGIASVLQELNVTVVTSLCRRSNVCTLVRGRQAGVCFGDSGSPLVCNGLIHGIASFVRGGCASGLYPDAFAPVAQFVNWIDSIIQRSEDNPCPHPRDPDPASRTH

B1: recombinant HCIQ2c1 Kunitz-type peptide from Heteractis crispa (peptide, UniProt A0A6B7FBD3 28-85, looked up)
chain: IQGNICSEPKKVGRCRGSFPRFYFDSETGKCTPFIYGGCGGNGNNFETLHACRAICRA
notes: HCIQ2c1, Kunitz-type peptide of the sea anemone Heteractis crispa; mature peptide of 58 aa (precursor 85 aa: signal peptide 22 aa, propeptide 5 aa ending in Lys-Arg at 26-27, mature peptide 58 aa); begins with Ile-Gln; measured mass 6330 Da; numbers count on: the mature protein; also called rHCIQ2c1; source: E. coli BL21 (DE3), thioredoxin fusion, purified (Ni-NTA, CNBr cleavage, RP-HPLC)

Legend:
Settings in all cases: both partners purified
trypsin = assay: enzyme inhibition (Dixon method); trypsin 208 nM, substrate BAPNA 0.6 and 1.2 mM, peptide 0–26.6 µM (rHCIQ2c1) or 0–24 µM (rHCIQ4c7); three parallel experiments
trypsin, sequence (P00760 24-246): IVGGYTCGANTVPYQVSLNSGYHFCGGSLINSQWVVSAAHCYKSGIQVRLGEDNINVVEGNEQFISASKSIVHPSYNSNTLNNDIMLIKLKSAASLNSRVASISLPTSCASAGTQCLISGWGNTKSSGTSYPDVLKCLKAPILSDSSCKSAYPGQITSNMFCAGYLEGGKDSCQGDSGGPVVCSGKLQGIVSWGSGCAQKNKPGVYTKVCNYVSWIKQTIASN

[1] = molecular target: T1, human neutrophil elastase; assay: SPR; Biacore 3000; peptides covalently immobilised on a CM4 chip (970 RU rHCIQ2c1, 460 RU rHCIQ4c7); proteinases 1 nM to 5 μM flowed over; 25 °C; HBS: 0.15 M NaCl, 0.01 M HEPES, pH 7.4
[2] = molecular target: B1; assay: as above

| Binder | Ki (trypsin) | Ka [1] | Kd [1] | koff [1] | kon [1] | Ka [2] | Kd [2] | koff [2] | kon [2] |
| --- | --- | --- | --- | --- | --- | --- | --- | --- | --- |
| recombinant HCIQ4c7 Kunitz-type peptide from Heteractis crispa (not fully specified; cysteine pairing not given here) IQGNICSEPKKVGRCRESFPRFYFDSETGKCTPFIYGGCGGNGNNFETLHACRAICRA | 190 nM | 1.05e+06 M⁻¹ | 955 nM | 0.0114 s⁻¹ | 11900 M⁻¹ s⁻¹ |  |  |  |  |
| B1 | 52 nM | 7.9e+06 M⁻¹ | 127 nM | 0.00861 s⁻¹ | 68000 M⁻¹ s⁻¹ |  |  |  |  |
| pancreatic kallikrein (enzyme, Species and supplier are not given; porcine pancreatic kallikrein is assumed as the usual commercial enzyme. Limits are the active chain of the candidate entry. The natural enzyme is glycosylated …) not shown |  |  |  |  |  | 2.04e+06 M⁻¹ | 490 nM | 0.00379 s⁻¹ | 49400 M⁻¹ s⁻¹ |
